B1: HDV Ribozyme (parent)
chain: GGCCGGCAUGGUCCCAGCCUCCUCGCUGGCGCCGGCUGGGCAACAUUCCGAGGGGACCGUCCCCUCGGUAAUGGCGAAUGGGACCCA

Variants of: B1
Test: self-cleavage, relative activity (ratio to wild type); higher = more cleavage; co-transcriptional

Variant | self-cleavage
C18U C66U | 0.801
C18U C66A | 0.407
C18A G50A | 0.23
C18A G50C | 0.219
C18A G50U | 0.197
G17U G67U | 0.609
G17U G67C | 0.628
G17U G59C | 0.432
G17U G59U | 0.43
C18G G35A | 0.156
C18G G35U | 0.0415
C18A U79G | 0.0639
C18A U79A | 0.138
C18A U79C | 0.117
C18U U23G | 0.383
C18G A45C | 0
C18G A45U | 0.217
G17U G54A | 0.326
C18G C86G | 0.0831
C18A A87C | 0.134
C18A A87G | 0.0811
G17U C86A | 0.369
G17U G52A | 0.509
G17U G52C | 0.591

Variant | self-cleavage
C18A C58G | 0
C18A C58U | 0.196
C18U C36G | 0.142
C18G C58A | 0.0573
C18G | 0.131
C18U | 0.732
C18A | 0.145
C18A G39U | 0.0369
C18A G39C | 0.0755
C18A G39A | 0.0739
C18A A83C | 0.0831
C18A A83U | 0.237
C18G C64A | 0
C18G G53U | 0.332
C18G A43C | 0.332
C18G A43G | 0.145
C18U C41G | 0.0314
C18G G29U | 0.601
C18G G29A | 0.217
C18G C36G | 0
C18G C36A | 0.095
C18G C36U | 0.0852
C18U G53U | 0.918
C18A A78C | 0.0978

Variant | self-cleavage
C18A A78G | 0.131
C18U C86U | 0.886
C18U C86A | 0.82
C18G C48A | 0.123
C18G C48G | 0.175
C18A G55A | 0.0314
G17U G38A | 0.0755
C18U C32A | 0.166
G17U U27G | 0.522
G17U U27A | 0.486
C18U A71G | 0.504
C18G G40U | 0.0489
C18G G40A | 0.175
C18G G40C | 0.0852
C18U A77G | 0.623
C18U A77C | 0.342
C18U A77U | 0.0678
C18G U46G | 0.0692
C18G U46A | 0.145
C18G C44U | 0.0426
C18G C44A | 0
C18A C64G | 0.0678
C18A C64U | 0.256
C18A C36U | 0.0386

Variant | self-cleavage
G17U U20G | 0
C18U C61U | 0.481
C18G C30G | 0.222
C18U C24G | 0.0665
C18U C24A | 0.123
C18G G74C | 0.142
C18G G74A | 0.0449
C18G G74U | 0.116
G17U G76U | 0.749
G17U G39U | 0.126
G17U G39C | 0.0755
C18U G74A | 0.0639
C18G A78U | 0.0723
C18A G54A | 0.0779
C18A G54U | 0.135
C18G G31C | 0.0449
C18A C44U | 0.219
C18A C44G | 0.193
C18A C44A | 0.17
C18U G55U | 0.595
C18U G55A | 0.919
C18G U79G | 0.133
C18U G39U | 0.0997
C18U G39A | 0.0302

Variant | self-cleavage
C18A G53A | 0.0652
C18U C63A | 0.293
C18G U72C | 0
C18G U72G | 0
C18G G67U | 0.101
C18G G67C | 0.203
C18G C49U | 0.138
C18U C21G | 0.151
C18G C22A | 0.172
C18A U27A | 0.131
C18G U23A | 0
C18G U23C | 0.227
G17U G29C | 0.0773
G17U G29U | 0.0554
C18U C64A | 0.332
C18U C64U | 0.751
C18U C64G | 0.736
C18A C22G | 0.0811
C18A C22U | 0.0378
C18G G38A | 0.0978
C18U G82C | 0.166
C18A G31A | 0.0898
C18A G31U | 0.141
C18G U37A | 0.111

Variant | self-cleavage
G17U G50A | 0.466
C18U C84U | 0.44
C18U C84G | 0.308
C18U C84A | 0.573
C18G C62A | 0.113
C18A A77G | 0.0354
G17U G28U | 0.0923
C18G G76U | 0.227
C18G G76A | 0.111
C18A A51G | 0.0554
C18A A51U | 0.0378
C18G G73A | 0
G17U G73C | 0.145
G17U G73U | 0.222
G17U G73A | 0.233
C18A C41A | 0.125
C18A C41G | 0.0554
C18U G40U | 0.314
C18G A56G | 0
C18G A56U | 0.138
C18G A42G | 0.115
C18G A42C | 0
C18G A42U | 0.138
C18A A71C | 0.0504

Variant | self-cleavage
C18A A71G | 0.0739
C18U C58G | 0.778
C18A C48A | 0.0369
C18A U72G | 0.19
C18A U72C | 0.0437
C18A G68C | 0.212
C18A G68A | 0.237
C18A C75U | 0.0665
G17U G25U | 0.185
C18G U27G | 0.128
C18G C61G | 0.219
C18G C61A | 0.222
C18A A45G | 0.0594
C18A A45U | 0.172
C18U A78C | 0.185
C18U C48A | 0.644
G17U U65C | 0.332
G17U U65A | 0.415
G17U U65G | 0.541
C18A U60C | 0
C18A U60G | 0
C18A U60A | 0.135
C18A U69G | 0.232
G17U U60A | 0.494

Variant | self-cleavage
G17U U60G | 0.522
C18G G55U | 0.0811
C18G C24A | 0.0755
C18G C24G | 0.0504
C18G C24U | 0.107
C18A C33A | 0.121
C18A C86G | 0.185
C18G A51G | 0
C18G A51U | 0.0489
C18G A51C | 0.208
G17U U72A | 0.119
C18G U47G | 0.256
C18U G35U | 0.0791
C18U G35A | 0.0906
C18A C19U | 0.0339
C18U G76A | 0.728
G17U G34C | 0.0692
G17U G34U | 0.0554
C18A U65G | 0.19
C18U G52C | 0.774
C18U G52U | 0.594
C18U G52A | 0.737
C18A G73U | 0.0941
C18G G25A | 0.0504

Variant | self-cleavage
C18G G25C | 0.222
C18U A42G | 0.151
C18U A42U | 0.0627
C18G G68U | 0.0978
C18G G68A | 0.0504
C18G G68C | 0.119
C18A G35U | 0.0604
C18A G35C | 0.147
C18U C30A | 0.156
C18U C30G | 0.0583
G17U U47G | 0.35
C18A A56C | 0.0573
C18A A56U | 0.222
C18U A83U | 0.243
C18G U60G | 0.0791
C18G C41A | 0.196
C18A G74A | 0.0674
C18A G74C | 0.0791
C18A G74U | 0.0528
C18A G34C | 0.136
C18A G34A | 0.0326
G17U G31A | 0.107
C18G C84A | 0.095
C18G G80U | 0.0621

Variant | self-cleavage
C18G G80A | 0.0563
C18A C84A | 0.151
C18A C84G | 0.0437
C18A A43C | 0.0462
C18A A43U | 0.0339
C18A A43G | 0.192
G17U G82A | 0.543
C18U A43U | 0.138
G17U U37A | 0.185
G17U U37G | 0.0831
C18A G76C | 0.14
C18A G76U | 0.228
G17U G40A | 0.246
C18U G28A | 0.0346
C18U G28U | 0.0573
C18G U20C | 0
C18G U20G | 0.185
C18U G54A | 0.295
C18U C33U | 0.463
C18G G81C | 0
C18G G81A | 0.277
C18G A77U | 0
C18A C62G | 0.135
C18G G52A | 0.156

Variant | self-cleavage
C18U C49U | 0.587
C18U C62A | 0.599
C18U C62G | 0.543
C18G C66A | 0.0437
C18G C33U | 0.128
C18U A45C | 0.0755
C18U A45G | 0.306
C18A U46C | 0.095
C18A U46G | 0.128
G17U G74U | 0.217
G17U G74C | 0.0415
C18G G39U | 0.0554
C18G C32U | 0.172
C18G C32A | 0.166
C18A C24G | 0.107
G17U G55A | 0.554
C18U C44A | 0.0978
C18U C44G | 0.142
G17U U23A | 0.397
G17U U23C | 0.219
C18G G82A | 0.0462
G17U U69A | 0.306
G17U U69G | 0.534
C18U C26G | 0.869

Variant | self-cleavage
G17U G68U | 0.611
C18G G28C | 0.0573
C18G G28A | 0.0346
C18A C63U | 0.145
C18A C63A | 0.0692
C18A C57A | 0.219
C18A C57G | 0.208
C18A G81U | 0.0817
C18A G81C | 0.163
C18A G81A | 0.0755
C18G C63U | 0.0386
C18A U20G | 0.249
C18A U20C | 0
G17U G35U | 0.198
G17U G35A | 0.133
G17U G35C | 0.125
C18A G80C | 0
C18A G80A | 0.0963
C18A G80U | 0.051
G17U G80U | 0.156
G17U G80C | 0.102
G17U G80A | 0.272
C18A C30U | 0
C18A C21G | 0.131

Variant | self-cleavage
C18G A70G | 0.161
C18G A70U | 0.111
C18U G31C | 0.0326
C18U G31U | 0.119
C18G U65C | 0.175
C18A C66U | 0.0779
C18A C66A | 0.208
G17U U46G | 0.0554
G17U U46A | 0.111
C18G C21U | 0.128
C18G C21G | 0.175
C18U G50A | 0.852
C18A A70G | 0
C18A A70C | 0.128
C18U C22A | 0.27
C18U C22G | 0.0462
C18G G34C | 0.104
C18G G34U | 0
C18U G38C | 0.0297
C18U G38U | 0.0875
C18U G25U | 0.0297
C18U G25A | 0.104
C18U G25C | 0.201
C18A G59A | 0.228

Variant | self-cleavage
C18A G59U | 0.113
C18G A87C | 0.104
C18A U47C | 0.0536
C18U C85A | 0.574
C18U A51U | 0.701
C18A G40U | 0.0631
C18A G29A | 0.0604
C18A G82U | 0.0723
C18A C49U | 0.133
C18G C19A | 0.119
C18U U37A | 0.0773
C18U U37G | 0.128
C18U U37C | 0.554
C18U G73A | 0.161
C18G A83C | 0.192
C18G A83G | 0.0707
C18A G28A | 0.128
C18A G28U | 0
C18U C57A | 0.958
C18U C57U | 0.867
C18U C75G | 0.133
C18U C75U | 0.134

— the RNAGym collection of RNA variant scans (doi:10.7554/elife.80360)
